Source: patent US20050214302A1, “Use of emmprin antagonists for the treatment of diseases associated with excessive angiogenesis” (priority 2004, published 2005)

Columns and labels:
NHLF cells = assay: Recombinant EMMPRIN stimulation of MMP-1 production by NHLF cells; format: cell-based, human; settings: same treatment (20 μg/ml EMMPRIN)
HMVEC-L cells = assay: Recombinant EMMPRIN stimulation of MMP-1 production by HMVEC-L cells (MMP-1 activity kit); format: cell-based, human
Method: HMVEC-L cells were obtained from Clonetics, Walkersville, Md. (Cat# CC-2527, Lot# 8F1528). HMVEC-L cells were cultured under conditions recommended by the supplier. Briefly, cells were cultured in Endothelium Cell Growth Medium MV (EGM-2 MV, Clonetics, Cat#CC-3202) containing human epithelial growth factor (hEGF), hydrocortisone, human basic fibroblast growth factor (hFGF-B), vascular endothelial growth factor (VEGF), human insulin-like growth factor-1 (hIGF-1), ascorbic acid, gentamicin, 5% FBS, at 37° C., 5% CO2.
Early passage cells (less than passage 3) were trypsinized and washed with RPMI-1640 once. Cells were resuspended in Dilution Medium (DM−Fibroblast Basic Medium+2% FBS) at a concentration of 5×100,000 cells/ml. 100 μl of the cell suspension containing 50,000 cells was added into each well in a 96 well cell culture plate. […]
Quantitative detection of MMP-1 activity in the conditioned medium was carried out using Human MMP-1 Activity Kit (R&D Systems, Minneapolis, Minn.) (Cat#F1M00). […] MMP substrate added into each well was cleaved by active MMP-1 and the resulting fluorescence was determined using SpectraFluor Plus Plate Reader (TECAN, Zurich, Switzerland) (Cat# F129005, Ser# 94747) with the following parameters: excitation wavelength at 320 nm and emission wavelength at 405 nm.

[1] = system: angiogenesis in Matrigel plugs; assay: Matrigel plug angiogenesis assay in vivo; settings: suboptimal doses of FGF or VEGF, mice, expected
From the text: The role of EMMPRIN in angiogenesis will be directly investigated in vivo using Matrigel plug assays. Matrigel is a solubilized basement membrane preparation extracted from the Engel-Holm-Swarm (EHS) mouse sarcoma, a tumor rich in extracellular matrix proteins. The major component is laminin, but Matrigel also contains trace amounts of fibroblast growth factor, TGF-beta, tissue plasminogen activator, and other growth factors that occur naturally in the EHS tumor. Matrigel is the basis for several types of tumor cell invasion assays and provides the necessary substrate for the study of angiogenesis. Matrigel forms a soft gel plug when injected subcutaneously into mice or rats and supports an intense vascular response when supplemented with angiogenic factors.
Matrigel plugs containing suboptimal doses of angiogenic growth factors, such as basic fibroblast growth factor (FGF), or vascular endothelial cell growth factor (VEGF) can be implanted into mice to induce angiogenesis in vivo. Some of these plugs are supplemented with various doses of recombinant EMMPRIN.

B1: recombinant EMMPRIN: recombinant protein corresponding to the extracellular domain of human EMMPRIN, produced in NSO cells (R&D Systems) (protein, UniProt P35613 138-323, looked up)
extracellular domain: EPGTVFTTVEDLGSKILLTCSLNDSATEVTGHRWLKGGVVLKEDALPGQKTEFKVDSDDQWGEYSCVFLPEPMGTANIQLHGPPRVKAVKSSEHINEGETAMLVCKSESVPPVTDWAWYKITDSEDKALMNGSESRFFVSSSQGRSELHIENLNMEADPGQYRCNGTSSKGSDQAIITLRVRSHLA
modifications: extracellular domain
NHLF cells
  MMP-1 produced by NHLF cells relative to HMVEC-L: only half of that amount
HMVEC-L cells; 0.08-20 μg/ml EMMPRIN, 1 day and 3 days, FIG. 2
  Stimulation of MMP-1 production in endothelial cells (result in words): dose-dependently stimulated MMP-1 production
HMVEC-L cells; treated with 20 μg/ml EMMPRIN
  MMP-1 produced by HMVEC-L cells: approximately 40 ng/ml
[1]
  Angiogenesis in Matrigel plugs supplemented with recombinant EMMPRIN: increase in angiogenesis
